Columns and labels:
[1] = system: CD4 positive helper T cell lines (Th); test: IFN-γ and IL-4 ELISA of mouse Th induced by hsp105; type: cell-based, BALB/c mouse; conditions: supernatant 24 hours after addition of Th, FIG. 6C
Protocol: (§1) The spleen of a BALB/c mouse was collected and ground to separate spleen cells. 200,000 spleen cells per well on a 96-well flat plate were cultured in 200 μl of a culture solution containing IL-2 (100 IU/ml) and a 2 μg/ml recombinant hsp105 protein for 1 week. Thereafter, every week, the culture product was repeatedly stimulated with 200,000 spleen cells, which had been pulsed with a 2 μg/ml recombinant hsp105 protein and then exposed to radioactive rays, so as to establish multiple CD4 positive helper T cell lines (Th). The expression of CD4 and CD8 on the surface of cells was confirmed by performing immunofluorescent staining with Monoclonal Antibody MOUSE CD4-FITC, CD8-FITC (IMMUNOTECH, Marseille, France), and then analyzed with FACS (FIG. 6A). It was examined by the intake of [^3H] thymidine, whether or not Th specifically reacts with the hsp105 protein and grows. Specifically, 150,000 spleen cells were placed in each well of a 96-well flat plate, and several wells were pulsed with the hsp105 protein overnight, and the other wells were not pulsed therewith. […] Thereafter, the intake of [^3H] thymidine was measured with a liquid scintillation counter. […] Thus, IFN-γ and IL-4 secreted from Th as a result of the reaction were measured with Mouse IFN-γ, IL-4 ELISA Ready-SET-Go! […]

Colon-26 = test: In vivo antitumor activity of mouse Th induced by hsp105, local injection into Colon-26 tumor; design: species or system BALB/c mouse; conditions: tumor with a size of 3 mm, FIG. 6D
Protocol: as §1

[2] = system: CD4 positive helper T cell lines (Th); test: IFN-γ and IL-4 ELISA of colon cancer patient Th induced by hsp105; type: cell-based, human; conditions: FIG. 7B
Protocol: as §1, with “6A).” for “6A). It was examined by the intake of [^3H] thymidine, whether or not Th specifically reacts with the hsp105 protein and grows. Specifically, 150,000 spleen cells were placed in each well of a 96-well flat plate, and several wells were pulsed with the hsp105 protein overnight, and the other wells were not pulsed therewith.”
(§2) Monocytes were separated from the peripheral blood. […] The expression of CD4 and CD8 on the surface of cells was confirmed by performing immunofluorescent staining using Pharmingen anti-human CD4, CD8-FITC, and then analyzed with FACS. […] In addition, in the same manner as in Example 7, IFN-γ and IL-4 secreted from Th as a result of the reaction were measured using Human IFN-γ, IL-4 US ELISA Kit (BIOSOURCE, Camarillo, Calif.). […]

[3] = system: CD4 positive helper T cell lines (Th); test: [3H] thymidine intake of CD4 positive helper T cell line of colon cancer patient induced by hsp105; type: cell-based, human; conditions: FIG. 7A
Protocol: as §1, with “6A).” for “6A). It was examined by the intake of [^3H] thymidine, whether or not Th specifically reacts with the hsp105 protein and grows. Specifically, 150,000 spleen cells were placed in each well of a 96-well flat plate, and several wells were pulsed with the hsp105 protein overnight, and the other wells were not pulsed therewith.”
as §2

[4] = system: CD4 positive helper T cell lines (Th); test: [3H] thymidine intake of mouse CD4 positive helper T cell line induced by hsp105; type: cell-based, BALB/c mouse; conditions: spleen cells pulsed with hsp105 protein, 72 hours, FIG. 6B
Protocol: as §1

B1: hsp105 protein: recombinant hsp105 protein, heat shock protein cancer antigen (SEQ ID NO: 1), used to induce CD4 positive helper T cell lines (protein, listed as Homo sapiens)
chain: MSVVGLDVGSQSCYIAVARAGGIETIANEFSDRCTPSVISFGSKNRTIGVAAKNQQITHANNTVSNFKRFHGRAFNDPFIQKEKENLSYDLVPLKNGGVGIKVMYMGEEHLFSVEQITAMLLTKLKETAENSLKKPVTDCVISVPSFFTDAERRSVLDAAQIVGLNCLRLMNDMTAVALNYGIYKQDLPSLDEKPRIVVFVDMGHSAFQVSACAFNKGKLKVLGTAFDPFLGGKNFDEKLVEHFCAEFKTKYKLDAKSKIRALLRLYQECEKLKKLMSSNSTDLPLNIECFMNDKDVSGKMNRSQFEELCAELLQKIEVPLYSLLEQTHLKVEDVSAVEIVGGATRIPAVKERIAKFFGKDISTTLNADEAVARGCALQCAILSPAFKVREFSVTDAVPFPISLIWNHDSEDTEGVHEVFSRNHAAPFSKVLTFLRRGPFELEAFYSDPQGVPYPEAKIGRFVVQNVSAQKDGEKSRVKVKVRVNTHGIFTISTASMVEKVPTEENEMSSEADMECLNQRPPENPDTDKNVQQDNSEAGTQPQVQTDAQQTSQSPPSPELTSEENKIPDADKANEKKVDQPPEAKKPKIKVVNVELPIEANLVWQLGKDLLNMYIETEGKMIMQDKLEKERNDAKNAVEEYVYEFRDKLCGPYEKFICEQDHQNFLRLLTETEDWLYEEGEDQAKQAYVDKLEELMKIGTPVKVRFQEAEERPKMFEELGQRLQHYAKIAADFRNKDEKYNHIDESEMKKVEKSVNEVMEWMNNVMNAQAKKSLDQDPVVRAQEIKTKIKELNNTCEPVVTQPKPKIESPKLERTPNGPNIDKKEEDLEDKNNFGAEPPHQNGECYPNEKNSVNMDLD
- IFN-γ and IL-4 secreted from Th [1]: generates a large amount of IFN-γ
- growth of Colon-26 tumor after local injection of Th (Colon-26): clearly retarded
- IFN-γ and IL-4 secreted from Th [2]: generates a large amount of IFN-γ
- hsp105 protein-specific growth of Th ([3H] thymidine intake) [3]: specifically reacted with the hsp105 protein and grew
- hsp105 protein-specific growth of Th ([3H] thymidine intake) [4]: specifically reacted with the hsp105 protein and grew

Reference: patent US9404925B2, “Cancer antigen and use thereof” (MEDINET CO., LTD., priority 2002, dated 2016)
